Source: patent US10344330B2, “Glatiramer acetate response biomarker mRNA potency assay” (Mylan Inc., priority 2013, dated 2019)

Experiments:
[1] = system: mIL-5 mRNA in primary LN cells; assay: mIL-5 mRNA by real-time PCR in stimulated LN cells of immunized (SJL/J×BALB/C)F1 mice (Example I); type: cell-based, mouse; conditions: GA 10, MBP 10, ConA 2.5 μg/mL; for mIL-5 mRNA Level: Experiment 1, GA-immunized (SJL/J×BALB/C)F1; for mIL-5 mRNA: not normalized to a reference gene
Procedure: For each of the three experiments summarized in Table 1, female (SJL/J×BALB/C) F1 hybrid (Jackson Laboratory) mice were immunized by footpad injection with either 250 μg GMA (Mylan Pharmaceuticals, Inc.) and CFA (Sigma Aldrich), or Mannitol and CFA (as a negative control). The GA solution was diluted to 5 mg/mL with Dulbecco's Phosphate-buffered saline. A dose solution was then prepared by mixing the diluted GA solution (5 mg/mL) and CFA (1:1) until well-emulsified. Each mouse received a total injection volume of 0.1 mL (250 μg GA). Animals were immunized on Day 0. Immunized animals were sacrificed via cervical dislocation on Day 10 following immunization. […] The LN were washed 3 times with −5 mL of RPMI medium, and the LN cells isolated by pressing the LN with a syringe plunger. […] The cell suspension was centrifuged at about 200×g for 10 minutes at about 4° C. and re-suspended in ice cold enriched DCCM-1 medium. The LN cells (2.5×10^6 cells/cm^2) were plated in the wells of a 48-well tissue culture plate and stimulated with GA or controls.
Expression of cytokine mRNA was quantitatively analyzed using a Real-Time PCR system (7500, Applied Biosystems).
(DCCM1 from Beit Haemek Ltd.; Cat. No. 05 010 1A). There was no MBP treatment for the 2-hour groups.
Group 1B animals were female (SJL/J×BALB/C) F1 hybrid (Jackson Laboratory) mice immunized by footpad injection with either 250 μg GA and CFA, or Mannitol and CFA (as a negative control). A dose solution was prepared by mixing a diluted GA solution (5 mg/mL) and CFA (1:1). Each mouse received a total injection volume of […] (250 μg GA). Animals were immunized on Day 0. Immunized animals were sacrificed via cervical dislocation on Day 10 following immunization. Lymph nodes from immunized mice were removed and isolated. LN cells (2.5×10^6 cells/cm^2) were plated in the wells of a 48-well tissue culture plate for stimulation with GA.
Expression of cytokine mRNA was quantitatively analyzed 4 and 6 hours after using a Real-Time PCR system (7500, Applied Biosystems).

[2] = system: IFN-γ secreted by LN cells; assay: IFN-γ secretion by GA-stimulated LN cells, MSD ELISA, 21 and 45 hr (Example II); type: cell-based, mouse
[3] = system: mouse IL-2 mRNA in primary LN cells; assay: Validation: mouse IL-2 mRNA by real-time PCR in LN cells of GA-immunized SJL/J mice, three experiments (Example IV); type: cell-based; conditions: for IL-2 mRNA Fold Change: 10 μg/mL, normalized to GAPDH
Procedure: (§1) Three experiments were conducted using one batch of GA (Mylan GMA). The primary LN cells were stimulated by incubation with 6 concentrations (0.3 to 20 μg/mL) of the GA for 6 hours at 37° C. Total RNA was isolated from LN cells stimulated with GA or controls. cDNA was synthesized from the RNA and the mRNA levels of seven mouse cytokines, IL-2, IL-4, IL-5, IL-10, IL-13, interferon (IFN)-γ and tumor necrosis factor (TNF)-α, were quantitatively measured by a real-time PCR method.
(§2) Female SJL/J mice at 8-9 weeks of age were immunized by injection into four footpads using a 1 mL syringe with a 27-G, ½-inch needle. Each mouse received a total injection volume of 0.1 mL of GMA emulsified in CFA (about 10 μL into each of the front footpads and 40 μL into each of the hind footpads). Animals were immunized on Day 0. After injection, animals were placed back in their cages and housed ≤6 animals per cage.
(§3) Immunized animals were sacrificed by cervical dislocation on Day 10 following immunization. […] After centrifugation at about 200×g for 10 minutes at 4° C., the cell pellet was re-suspended in 40 mL of DCCM-1 medium for cell counting. A Trypan blue exclusion method was used to determine the cell density of viable cells in the suspension. After cell counting, the LN cells were suspended in enriched DCCM-1 medium at density of 7.5×10^6 cells/mL. LN cells (0.12 mL) were plated into each well of 96-well tissue culture plates.
(§4) Dilutions of GA (Mylan GMA) were prepared using enriched DCCM-1 medium as the diluent. GA dilutions (0.12 mL) were added in the assigned wells of 96-well tissue culture plates. The same volume of LN cells (0.12 mL) isolated from immunized animals was added to the assigned wells. A positive control and a negative control were always performed in the same assay by treating LN cells with 2.5 μg/mL ConA and 10 μg/mL MBP, respectively. The LN cells with mock stimulation protocols (enriched DCCM-1 medium) were used to monitor the background mRNA level of a cytokine. The plates were incubated at 37° C. in a humidified 5% CO2 incubator for 6 hr.
(§5) At the end of incubation time, culture medium from stimulated cells was removed by aspiration and the cells were lysed using Qiagen or Promega lysis buffer. The lysate was transferred to an RNeasy Mini column (Qiagen) or wells of the SV 96 Binding Plate (Promega) for RNA isolation and cDNA synthesis. All tested samples were run in triplicate.
(§6) The SV 96 Total RNA Isolation System (Promega; Cat. No. Z3505) was used for total RNA isolation. Assay procedures were carried out according to each manufacturer's protocol. RNA samples were stored at −70° C. until use. […] The assay procedure was carried out according to the manufacturer's protocol.
(§7) The plate was centrifuged at 2000 rpm for 2 minutes at 4° C. to spin down the contents and eliminate air bubbles. Samples were prepared and run in a 96-well plate using a Life Technologies Real-Time PCR system (previously Applied Biosystems; Model No. 7500) according to the manufacturer's recommendation. The mix for the reference gene was prepared in the same way using the reference gene primer.
(§8) A relative quantitation method was used to analyze changes in mIL-2, mIL-4, mIL-5, mIL-10, mIL-13, mIFN-γ and TNF-α expression in GA treated samples relative to the untreated control (Enriched DCCM-1 treated) samples using the following program:
(§9) Levels of mouse cytokine amplicons were normalized to an internal probe level (GAPDH) from the same samples. The following equations were used to calculate the relative increase in response to GA stimulation compared to the control sample (Enriched DCCM1 sample): […]

[4] = system: mouse IL-4 mRNA in primary LN cells; assay: Validation: mouse IL-4 mRNA by real-time PCR in LN cells of GA-immunized SJL/J mice (Example IV); type: cell-based; conditions: 10 μg/mL, normalized to GAPDH
Procedure: as §1, §2, §3, §4, §5, §6, §7, §8, §9

B1: MBP: myelin basic protein, a negative control (protein, UniProt P02686 1-304, looked up)
Myelin basic protein: MGNHAGKRELNAEKASTNSETNRGESEKKRNLGELSRTTSEDNEVFGEADANQNNGTSSQDTAVTDSKRTADPKNAWQDAHPADPGSRPHLIRLFSRDAPGREDNTFKDRPSESDELQTIQEDSAATSESLDVMASQKRPSQRHGSKYLATASTMDHARHGFLPRHRDTGILDSIGRFFGGDRGAPKRGSGKDSHHPARTAHYGSLPQKSHGRTQDENPVVHFFKNIVTPRTPPPSQGKGRGLSLSRFSWGAEGQRPGFGYGGRASDYKSAHKGFKGVDAQGTLSKIFKLGGRDSRSGSPMARR
[1]; 4 hour post stimulation
  mIL-5 mRNA Level: 0.8 fold change vs control
[1]; 6 hour post stimulation
  mIL-5 mRNA Level: 0.2 fold change vs control
[1]; 24 hour post stimulation
  mIL-5 mRNA Level: 0.8 fold change vs control
[1]; Group 1B (GA + CFA), 4 hours post-stimulation
  mIL-5 mRNA: 1.4 fold change vs control
[1]; Group 1B (GA + CFA), 6 hours post-stimulation
  mIL-5 mRNA: 0.9 fold change vs control
[1]; Group 2B (Mannitol + CFA), 4 hours post-stimulation
  mIL-5 mRNA: 1.1 fold change vs control
[1]; Group 2B (Mannitol + CFA), 6 hours post-stimulation
  mIL-5 mRNA: 1.1 fold change vs control
[2]; BALB/cByJ, immunized GA Intraplantar, 21 hr
  IFN-γ secretion response ratio (treated cell medium to control DCCM1 medium): 0.87
[2]; BALB/cByJ, immunized GA Intraplantar, 45 hr
  IFN-γ secretion response ratio (treated cell medium to control DCCM1 medium): 0.83
[2]; BALB/cByJ, immunized GA Lower Limb, 21 hr
  IFN-γ secretion response ratio (treated cell medium to control DCCM1 medium): 0.80
[2]; BALB/cByJ, immunized GA Lower Limb, 45 hr
  IFN-γ secretion response ratio (treated cell medium to control DCCM1 medium): 0.92
[2]; BALB/cByJ, immunized Mannitol Intraplantar, 21 hr
  IFN-γ secretion response ratio (treated cell medium to control DCCM1 medium): 1.17
[2]; BALB/cByJ, immunized Mannitol Intraplantar, 45 hr
  IFN-γ secretion response ratio (treated cell medium to control DCCM1 medium): 0.92
[2]; C57BL10J, immunized GA Intraplantar, 21 hr
  IFN-γ secretion response ratio (treated cell medium to control DCCM1 medium): 1.03
[2]; C57BL10J, immunized GA Intraplantar, 45 hr
  IFN-γ secretion response ratio (treated cell medium to control DCCM1 medium): 1.07
[2]; C57BL10J, immunized GA Lower Limb, 21 hr
  IFN-γ secretion response ratio (treated cell medium to control DCCM1 medium): 1.60
[2]; C57BL10J, immunized GA Lower Limb, 45 hr
  IFN-γ secretion response ratio (treated cell medium to control DCCM1 medium): 1.80
[2]; C57BL10J, immunized Mannitol Intraplantar, 21 hr
  IFN-γ secretion response ratio (treated cell medium to control DCCM1 medium): 2.02
[2]; C57BL10J, immunized Mannitol Intraplantar, 45 hr
  IFN-γ secretion response ratio (treated cell medium to control DCCM1 medium): 1.41
[2]; CD-1, immunized GA Intraplantar, 21 hr
  IFN-γ secretion response ratio (treated cell medium to control DCCM1 medium): 1.06
[2]; CD-1, immunized GA Intraplantar, 45 hr
  IFN-γ secretion response ratio (treated cell medium to control DCCM1 medium): 0.89
[2]; CD-1, immunized GA Lower Limb, 21 hr
  IFN-γ secretion response ratio (treated cell medium to control DCCM1 medium): 0.90
[2]; CD-1, immunized GA Lower Limb, 45 hr
  IFN-γ secretion response ratio (treated cell medium to control DCCM1 medium): 2.11
[2]; CD-1, immunized Mannitol Intraplantar, 21 hr
  IFN-γ secretion response ratio (treated cell medium to control DCCM1 medium): 1.57
[2]; CD-1, immunized Mannitol Intraplantar, 45 hr
  IFN-γ secretion response ratio (treated cell medium to control DCCM1 medium): 7.22
[3]; Experiment 1
  IL-2 mRNA Fold Change: 1.0 fold
[3]; Experiment 2
  IL-2 mRNA Fold Change: 0.9 fold
[3]; Experiment 3
  IL-2 mRNA Fold Change: 0.8 fold
[3]; SJL/J, MBP 10 μg/mL, all PCR runs
  IL-2 mRNA expression level in response to MBP treatment: ≤ 2 fold
[4]; Experiment 1
  IL-4 mRNA Fold Change: 2.7 fold
[4]; Experiment 2
  IL-4 mRNA Fold Change: 0.8 fold
[4]; Experiment 3
  IL-4 mRNA Fold Change: 1.1 fold
